Measured values: the DeepSol protein solubility set

Experiment: soluble on expression in E. coli; label from the status in PepcDB or PDB records

## SRLLKTDLLEDVFNVENESFMQETELKENEYSVNLRTRFWFRGRAYDGWINLVNPFRATMVLGTPGSGKSYAIINQYIKQTIEKGYSLFLYDFKYPDLSEIAYNHLLAHLDGYKVKPKFYVINFDNPRESHRCNPIHPDFMTDISDAYESAYTIMLNLNRTWISKQGDFFVESPIILLASIIWYLKIYKNGKYCTFPHAIEFLNRKYADIFPILTSYPELENYLSPFMDAWESSAVEQLQGQIASAKIPLSRMISPALYWVMTADDFTLDINNPEEPKVLVVGNNPDRQGIYGAALGLYNSRIVKLINKKKRLKSAVIIDELPTIYMRGLDNLIATARSNKVAVMLGFQDFSQLKRDYGDKESAVICNTVGNVFAGQVVAETAKTLSERFGKVLQKRQNMTINRNETSVSINTQMDSLIPASKISNLTQGMFVGAVADNFDERIEQKIFHAEIVVDNEQVRRETARYVKIPQIIDFTDKDGNDTMQQQIDANYYRIKSEVRQIVADEIGRIKADPELSHLIKDK
  soluble on expression in E. coli: not soluble

## MKTSSYLLKAGVDYPTNWDEFVDWFHDEQSCTSYLYALRWPNGFICPSCSSHQSPYQLSNGKLKCHACRFQCSVTSSTLFDKTRTPMKSWFAAVWFITNQKNGVSALGVQRLLGLGSYQTAWSLMHKLRYAMVDPERDKLSGIVEVDETLIGGVIPKSSIKNQQGKRKAIVLVAVELLSPSGFGRIRLRQVESATKEHIHQFIQDVIEPGSTICSDGSQAYKQIDKKGYKHNRMVHLGSSVPAHETMAGVHRVSSLCKRWLLGTYQGAVKAKQLDYYLDEFTFRFNRRKSDSRGLLFYRLLEQAVRSKPITYQSIKNRLEHHHHHH
  soluble on expression in E. coli: not soluble

## MRSIFLLHFDYKTCEEEDFEDWNLADGKCLNGAKYMYKRRKQDARCLVKRTFKDMILHEIPCDSCTESDYECSSEFVRDAKGDCIPDYDQIALSDICDKANGETVSLEPLQLIKGDKCKKPMEIEAMNIPCEKILRESSNGKKIATIENKFDFEI
  soluble on expression in E. coli: not soluble

## MGSDKIHHHHHHMKQYLRLRAFKAISFDLDDTLYHNTPYLQLATDKFFAFLNQNYPKTQTLHAQGWLTIKHDLFDLHPELKHDTSAARYAMVHDGLMSLGYKESEASEGAQKSMACFHFYRSDFTLDDKVLNLLKQLAESVTLVGISNGNVDASRIGLSESLAFVQHPGHGVKMKPHGDMFELACQRLNISPAELLHVGDHQMADVSGARRAGCQSVWFNPEKHPLTRRTGSILPHVELDDLNKLLNLV
  soluble on expression in E. coli: not soluble

## MRTITFNELRKIKDSLPSGSMHRIADELGLHVDTVRNFFGGHNFKEGKSVGIHLEPGPDGGLVMLDDTTVLDRALKILDEINMSMQKEQATEPMQI
  soluble on expression in E. coli: not soluble

## MKTQVVINAKIYTGQEVVENGFIRYAETIKEIGLMAQYVSQENETVLDAAGKIVIPGMIDVHIHGGYDIDAMDANSDGLVTLGKEMLKEGVTTYFPTTMTQAPEAIEAALHAAKEAKEKGAHFEYIHLEGPYVSKKRAGAQPLEHIVPANIEQFKQWQEASGNLIKLVTYAPEEEGALEFEQYLAETGVVGTMGHTDAIDAQLKNRNITHATHLYNQMRGLHHREPGVVGHVLLNPDVMVEVITDGIHIHPDMVKLAYKLKGPKKVSVITDAMRAKGLEDGLYELGGQPVHVKDGSARLEDGTLAGSILKMDQAFRNVIEFTGCSIEDAVLMTSVNQAEEFGLNNKGALAVGKDADFVVMNEDLHVYDTVRLGIHMKEGK
  soluble on expression in E. coli: not soluble

## MRTRLLAILLAVWPAACATAEPACRDLTFEDTRYSLCEAQAGDDIRIFQTAPDGRPYGSFERINSALEGEGRQLAFAMNAGMYHADRRPVGLLIEEEVERAPLVTSAGPGNFGLLPNGVFCVGDGFRVIESRAFAAERPTCRHASQSGPMLVIGGELHPRFLVDSDSRYIRNGVGVSADGRRAVFAISNRPVTFHEFGRLFRDELGLPEALYFDGSISRLYDRGARRSDWGTPMGPIVGLVVPKPLEHHHHHH
  soluble on expression in E. coli: not soluble

## MFFRSKKTHFLEVDKFWTPEKIVRSSEVKRINKNTEISTQESTSTSTEYQFATLEDFQNAMAEKDQNIKKLKEEVEKLIDEQEDEIILAEMQFEIFQIKAETEARRLKKLLIMRNEDFSILKTKYEDLQKQFYDLSPYPVNGYGGILIGDETPKQEKLMDQLLDKLKVLNDGDYYDIFHLLETIDKIIVTFSLYFKDPILITKKMEDNKQIIQKLEDEVDYLTKNLESLNPSQLVTSLENKDDYLLVTVEFQKRKNILFSELKKKNEEIKMLQESFNVYQKDSIEKVMEKFLELQHQNLTVFSVDDTNSISTELNNDRNVAKNDKSEGVESLMLENFNNSLKIALNSVKREISKQNVTIKTDEDMIKDMKKTIDSNENMIKMLADELSWKTKDCQVKVSALENQIFDKNDEIVKLKSHVSTESGNSPKLERNVRELTLKISSETSSQGTSRTYPHLEQEILTFHSEKISDPSEEANQEVREFPLEQTLEKLKLEQTESLVAILEQPGGLKTMRNDPQWLQVVDHFCDYVRKIEKLEENVKEEQMNTEMIMKERTREITELYYQKRVLEKKISEQFKEIQQVKSEISRVYEANIQEIQKSFDIKLKLKDQIIGELEAVDEMSSNHTELSDGWSDLDIVQNTEELQ
  soluble on expression in E. coli: not soluble

## MGLLVNGIWQDQWYDTESTGGRFVRHDSQFRHWITPDGSPGPTGHGGFKAEAGRYHLYVSLACPWAHRTLIFRKLKGLEGMIDVSVVHWLMRENGWTFAPGPGVMPDPLFNAEYLYQIYTRADAQYSGRVTVPILWDKQKQTIVNNESSEIIRIFNSAFDGLGAKSGDYYPKALRTQIDALNDRIYHTINNGVYKCGFATTQTAYEEAIAPLFESLDWLEGILQGHQYLTGDEITEADWRLFTTLIRFDVVYVGHFKCNLRRIQDYPNLWRYLRDLYHQPGIAETVNFQHIKGHYYESHLNINPTGIVPMGPALDLSLALEHHHHHH
  soluble on expression in E. coli: not soluble

## MGTLSVNQNKLQKRLRRLAGEAVADFNMIEEGDKVMVCLSGGKDSYTLLDVLMHFQKVAPIRFDIVAVNMDQKQPGFPEHVLPAYLKELGVEYHIVEKDTHSVVKELIPEGKTTCSLCSRLRRGTLYTFADQIGATKMALGHHRDDIIETFFLNMFFNGALKAMPPKLRADDGRNVVIRPLAYCHEKDIQAYSDLKQFPIIPCNL
  soluble on expression in E. coli: not soluble

## MKFNIRGENIEVTPALKEYVEKKLSKLERYFDTFPEIKVNLKVYSDKQRVEVTIPFTDLLLRAEETNSDMYAAIDLVVDKLERQIRKHKTKVNRKLREKGSMKTNFILPEAVAVLDEVEEDELELVRTKRFDLKPMDVEEAILQMDMLGHNFFVFTNADTNETNVVYGRKDGKYGLIETKLEHHHHHH
  soluble on expression in E. coli: not soluble

## MGSDKIHHHHHHMLRSTISLLMNSAAQKTMTNSNFVLNAPKITLTKVEQNICNLLNDYTDLYNQKYHNKPEPLTLRITGGWVRDKLLGQGSHDLDIAINVMSGEQFATGLNEYLQQHYAKYGAKPHNIHKIDKNPEKSKHLETATTKLFGVEVDFVNLRSEKYTELSRIPKVCFGTPEEDALRRDATLNALFYNIHKGEVEDFTKRGLQDLKDGVLRTPLPAKQTFLDDPLRVLRLIRFASRFNFTIDPEVMAEMGDPQINVAFNSKISRERVGVEMEKILVGPTPLLALQLIQRAHLENVIFFWHNDSSVVKFNEENCQDMDKINHVYNDNILNSHLKSFIELYPMFLEKLPILREKIGRSPGFQQNFILSAILSPMANLQIIGNPKKKINNLVSVTESIVKEGLKLSKNDAAVIAKTVDSICSYEEILAKFADRSQLKKSEIGIFLRNFNGEWETAHFASLSDAFLKIPKLETKKIELLFQNYNEFYSYIFDNNLNNCHELKPIVDGKQMAKLLQMKPGPWLGKINNEAIRWQFDNPTGTDQELITHLKAILPKYL
  soluble on expression in E. coli: not soluble

## MGSDKIHHHHHHMPPRKKAAIASTGIAGLDEILRGGLPLPNLFMLQGAPGSGKTTAAIQFLRAGVEAGESCLYVTLSQSAAELRSIAVSHGWTLDGIHVEELSTTGSIDEADEQSIFMTADLRLDETRKAIEAAIDEHKPQRLVYDSLLEIRLITGDSPRFRRELIGFKSFLSKRKVVALLLDTQSPGLDRSGEEVEGLAHGVIRFDKSLEEYGGVRRRIEVSKMRGVPIADGYHDMAIREGAGVVVFPRIMPSTATEATKPQLIKSGVSELDDMFGGGQEAGTTTLVIGQAGTGKSTMSSLYATAALERGESVALFLFEERLETFFRRSEGLGMQLRQFHKDGKLILRDFNPNEVSPGEFGQIVQDAVVQNKVRVVVIDSLTGYLNSLPHREKAVRDIQSLLKYLARSGVLTMLIVAQHGLLGQNVGIDVDVSFLGDTVLLLRIMEHEGRLRRSITVVKKRHGPHDLDVRELLIESGSVSVVSYNPLPDPK
  soluble on expression in E. coli: not soluble

## MHPTAAALIRTLGLAPHPEGGHYRRVYASTRQVLDDSGAPPRPALTAIRFLLCAGEASRWHRVDAEECWHWQQGAPLELLIFDEASGQLRREVLDAAERGDAMHVVPAGCWQAARSLGDFTLVGCTVSPGFVWEGFALLEDGSPLAAQLAALVAEGAAPEPPTLPLEHHHHHH
  soluble on expression in E. coli: not soluble

## MGSDKIHHHHHHMATTNAASTVRELIREHYSALTQAERKFANALLDNYPAAGLASITIVASNVGVSSPTVARMVKKLGFKGYPEFHKALLSELEAKGVGPTKRRDNWSSEAPQEHLLNRFSQAVTNNLQQTFAHIDTERFDQATRQLADTEKRLYIVGGRITQALADYAFTHFQAVRPGVTHMTSSSGTWPHYVLDMEPGDTLLIFDVRRYETNLLRLTEIVKKRGAQIVLFTDQWGSPISTLADLTFHCRVEIPSGWDSNVATMMLLETMIASVQEQRWPDARDRYERLDELFDKTHFFRKFT
  soluble on expression in E. coli: not soluble

## MVQLDRFEILFNNPEQAYFAGQEISGKVIIENKEPKKVNEILLELKGRARTYWTKHSGKSRKHCSHSEPYFLEQFNPGYTHKFTVVKDGKEKERILPAGIHQVPFSYTLPKSLPSSFEGEFGHIRYTCKAICERPWDFDIVSRKAFTVVGIEDINSDPKLNEPATCVESNHAVTFCCRSAGSVTGEIRISKCGYTPGEKIDVSFKVINLSSKTRTTALRFVQQTTYKAKTFAGHEHIKNVVRVISKIDKGEVPGGSTTEWQEESITIPSLPPKLGKCKILSVTYSVELEVEQTLTVPCPIVIGSIPQLSQLLIHSKQSVQSAGNGSLPKSSIKDSPPKWDSESCVQVTITDESGQLVEELGNEMEALLSARKRVRMPSSILSELYPTMPSPYYKESFFGASDISEEKEQAQFGEASFAPKYPFYTD
  soluble on expression in E. coli: not soluble

## MVVQSDGSPEAASYTLIHFWAAYDGESRAGNVRWSRYFAKRPDSRVRYVGVSMDKNLSVFTNTLAFDQIDLSAQRLVENSKRDQMLNIYGLKIRFHSYLVDAHGIIRAVDPNPDQLETIL
  soluble on expression in E. coli: not soluble

## MAVDAVNSAAANPWANAGASSSDKNAASLNYDSFLKLLIAQMKNQDPTSPMDAGQQMSQLASFSQVEQTIKTNTHLKSMLQAEALTRASDLVGKTVMSADDKVTGVVKEVQVFSDGIVAVTEAGDKVLLQAGVVFSNGPITTKSDETTADSNNSAGS
  soluble on expression in E. coli: not soluble

## MLERILSRENLIQALERVEKNKGSYGVDEMDVKSLRLHLHENWTSIRNEIIEGSYFPKPVRRVEIPKPNGGVRKLGIPTVMDRFLQQAIAQILTQLYDPTFSERSFGFRPHRRGHNAVRQAKQWMKEGYRWVVDIDLEKFFDKVNHDRLMRKLSSRIQDPRVLQLIRRYLQTGVMERGLVSPNTEGTPQGGPLSPLLSNIVLDELDNELEKRGLKFVRYADDCNIYVRSKRAGLRIMESVTSFIENRLKLKVNREKSAVDRPWNRKFLGFSFTRGKDPKMRVSKESVKRLKQRIRELTSRRHSMKMSDRLRRLNRYLTGWLGYYQVVDTPSILAQIDAWIRRRLRMIRWKEWKTTSARQKNLVRLGIKKAKAWQWANSRKGYWRVAHSPIMDYALNSEYWKGQGLMSLAERYQTRRWTLEHHHHHH
  soluble on expression in E. coli: soluble

## MGSDKIHHHHHHMTHIVHKGLDFFVKPQKVSLNLNMKIGSLKVHPEDLKLLMKKVPVFMMSYYDNKAFMERELEISSADFPNGVVFFSYYEPVPAELNWDVDKKLISQLTKYFHLYDLVHSINSLIDETEGSSLHIGVYEEWLDRIMVKVPSENTEELRNMLSRFSLLYTTKILWKIFRGNFEELKKRTHEIAYKLYEVAGF
  soluble on expression in E. coli: not soluble
